Positions count from the first letter of the chain named. Names may count otherwise. Blank lines part the entries; values can stand above or below the molecule they belong to. Where no end group is shown, it is not given here.
Experiments:
CED-9 (residues 68-251) [1] = target: T1, CED-9 (residues 68-251) (Caenorhabditis elegans, UniProt P41958 68-251); experiment: isothermal titration calorimetry (ITC)
T1 construct: range 68-251; Form used in isothermal titration calorimetry
T1 sequence (looked up): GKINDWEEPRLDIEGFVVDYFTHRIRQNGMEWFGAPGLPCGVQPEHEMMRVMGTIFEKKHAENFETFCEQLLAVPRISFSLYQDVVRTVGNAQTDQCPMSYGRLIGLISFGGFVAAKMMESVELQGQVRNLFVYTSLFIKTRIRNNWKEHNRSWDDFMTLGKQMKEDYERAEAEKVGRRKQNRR
Excerpt: (§1) The EGL-1/CED-9 complex adopts a compact, globular fold, resembling a single folding unit. CED-9 comprises 7 α helices, with the central hydrophobic helix α5 surrounded by 6 helices and several surface loops. A 27-amino acid fragment of the EGL-1 protein (residues 47-73) forms a single amphipathic α helix, packing against CED-9 helices α2, α3, α4, α5, and α7 over an extended hydrophobic surface cleft. Residues N- or C-terminal to the EGL-1 helix were disordered in the crystals and thus are not involved in binding to CED-9.

CED-9 (residues 68-251) [2] = target: T2, CED-9 (residues 68-251) (Caenorhabditis elegans, UniProt P41958); experiment: isothermal titration calorimetry (ITC) of EGL-1 fragments binding to CED-9; parameters: species or system C. elegans; conditions: binding to CED-9 (residues 68-251), read-out: dissociation constant
T2 construct: made in house
T2 sequence (P41958 68-251): T1 sequence (looked up)
Excerpt: as §1

[3] = tested on: ced-1 (e1735); egl-1 (n1084 n3082) animals; experiment: in vivo cell killing: cell corpses in four-fold transgenic embryos after heat-shock expression of EGL-1 fragments; parameters: species or system C. elegans; conditions: anterior head region of four-fold transgenic embryos; heat-shock promoter expression
Method: In this example, the ability of EGL-1 mutants to disrupt the CED-4/CED-9 complex was tested. […] To examine this scenario, constructs were injected into ced-1 (e1735); egl-1 (n1084 n3082) animals that direct expression of various EGL-1 fragments under the control of the C. elegans heat-shock promoters. Cell corpses were scored in the anterior head region of four-fold transgenic embryos after the heat-shock treatment.

[4] = target: T3, CED-9 (construct not stated) (Caenorhabditis elegans, UniProt P41958 1-251, limits assumed); experiment: GST-mediated pull-down
T3 construct: Also stands for the worm's own CED-9 in the in vivo rows
T3 sequence (looked up): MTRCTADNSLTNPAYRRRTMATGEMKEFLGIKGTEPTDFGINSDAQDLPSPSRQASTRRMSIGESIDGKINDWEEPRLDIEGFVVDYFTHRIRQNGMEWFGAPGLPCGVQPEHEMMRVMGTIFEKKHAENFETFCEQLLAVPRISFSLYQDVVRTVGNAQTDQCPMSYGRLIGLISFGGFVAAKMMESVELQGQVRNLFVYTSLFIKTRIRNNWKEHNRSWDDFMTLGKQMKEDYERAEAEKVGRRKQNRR
Excerpt: This example describes the biochemical and functional analysis of EGL-1/CED-9 interactions. To corroborate the structural analysis, mutations on the interface residues of EGL-1 were examined for their potential to weaken or disrupt its binding to CED-9. Various mutant EGL-1 fragments were purified as fusion proteins with glutathione S-transferase (GST) and their interactions with CED-9 were investigated using a GST-mediated pull-down assay. […] Strikingly, substitution of Gly55 by a negatively charged glutamate residue was not sufficient to abolish interaction with CED-9.

[5] = target: T4, CED-9 protein (residues 1-251) (Caenorhabditis elegans, UniProt P41958 1-251); experiment: EGL-1 missense mutants tested for interaction with CED-9 (Example 1)
T4 construct: range 1-251
T4 sequence (looked up): T3 sequence (looked up)

[6] = target: T4, CED-9 protein (residues 1-251); experiment: binding test of GST-EGL-1 fragments with CED-9 (1-251)
Method: This example describes the characterization of EGL-1/CED-9 interactions. To determine the mechanism of CED-9 recognition by EGL-1, the EGL-1/CED-9 interaction was characterized. Various fragments of the GST-EGL-1 protein were evaluated for their abilities to interact with the CED-9 protein (residues 1-251). […] In contrast, the C-terminal half (residues 45-87 or 45-91) formed a stable complex with CED-9.

binding result [4]: no binding
binding result [5]: no binding
B2: GST-EGL-1 fragment double mutant (mut2, G55E/F65A) (other, UniProt O61667 60-102, looked up)
chain: SEISSIGYEIESKLAAMCDDADAQMMSYSAHASDRSLFHRLLD
modifications: also: GST fusion in pull-down, placement and linker not given here
notes: GST fusion in the pull-down; also called EGL-1 (G55E/F65A); EGL-1 double mutant; not shown: glutathione S-transferase (GST) fusion partner

binding result [4]: no binding
B3: GST-EGL-1 fragment quadruple mutant (mut4, G55E/L58A/F65A/M69A) (other, UniProt O61667 60-102, looked up)
chain: B2 chain with L14A, M25A
modifications: also: GST fusion in pull-down, placement and linker not given here
notes: GST fusion in the pull-down; not shown: glutathione S-transferase (GST) fusion partner

binding result [6]: no binding
B4: GST-EGL-1 N-terminal half (residues 1-45) (other, UniProt O61667 16-60, looked up)
chain: {GST}-MSNVFDVQSSVFYNEKNMFYSSSQDFSSCEDSSQFADDSGFFDDS
notes: GST placed at the N-terminus by the printed name 'GST-EGL-1'; also called N-terminal half (residues 1-45) of EGL-1; not shown: glutathione S-transferase (GST) fusion partner

Further lines, the molecule ahead of its results:

Molecule: full-length EGL-1 protein (from UniProt O61667 16-106)
Kd (CED-9 (residues 68-251) [1]): 6.7 nM

B1: full-length EGL-1 protein: full-length pro-apoptotic BH-3 Only protein EGL-1 of C. elegans (protein, UniProt O61667 1-106, looked up)
chain: MLMLTFASTSSDLLPMSNVFDVQSSVFYNEKNMFYSSSQDFSSCEDSSQFADDSGFFDDSEISSIGYEIGSKLAAMCDDFDAQMMSYSAHASDRSLFHRLLDFFAF
modifications: full-length
notes: full-length pro-apoptotic BH-3 Only protein EGL-1 of C. elegans
Kd (CED-9 (residues 68-251) [2]): 6.7 nM
cell killing (cell corpses induced) [3]: induced robust cell killing

Molecule: SSIGYEIGSKLAAMCDDFDAQMMSY (peptide, UniProt O61667 63-87, looked up, range 63-87; Used in ITC) [EGL-1 fragment (residues 48-72)]
Kd (CED-9 (residues 68-251) [1]): 6.4 nM

Source: patent publication US20080138847A1, “Bcl-2 family member and BH-3 only proteins for use in development of peptidomimetics” (priority 2004, published 2008)
